Laboratory results as given in article doi:10.1101/2020.09.01.277863.

Target: HalM2, class II lanthipeptide synthetase (wild type) (Bacillus halodurans)
Assay: native MS

HalA2 precursor peptide (full-length)
Kd: 2400 nM | stoichiometry N: 1
